Test results as given in patent US20220186206, “NOVEL Cas ENZYME AND SYSTEM, AND USE THEREOF” (SHANDONG SHUNFENG BIOTECHNOLOGY CO., LTD., published 2022).

T1: UkCpf1 (in cells) (uncultivated microorganism (metagenome))
T1 chain: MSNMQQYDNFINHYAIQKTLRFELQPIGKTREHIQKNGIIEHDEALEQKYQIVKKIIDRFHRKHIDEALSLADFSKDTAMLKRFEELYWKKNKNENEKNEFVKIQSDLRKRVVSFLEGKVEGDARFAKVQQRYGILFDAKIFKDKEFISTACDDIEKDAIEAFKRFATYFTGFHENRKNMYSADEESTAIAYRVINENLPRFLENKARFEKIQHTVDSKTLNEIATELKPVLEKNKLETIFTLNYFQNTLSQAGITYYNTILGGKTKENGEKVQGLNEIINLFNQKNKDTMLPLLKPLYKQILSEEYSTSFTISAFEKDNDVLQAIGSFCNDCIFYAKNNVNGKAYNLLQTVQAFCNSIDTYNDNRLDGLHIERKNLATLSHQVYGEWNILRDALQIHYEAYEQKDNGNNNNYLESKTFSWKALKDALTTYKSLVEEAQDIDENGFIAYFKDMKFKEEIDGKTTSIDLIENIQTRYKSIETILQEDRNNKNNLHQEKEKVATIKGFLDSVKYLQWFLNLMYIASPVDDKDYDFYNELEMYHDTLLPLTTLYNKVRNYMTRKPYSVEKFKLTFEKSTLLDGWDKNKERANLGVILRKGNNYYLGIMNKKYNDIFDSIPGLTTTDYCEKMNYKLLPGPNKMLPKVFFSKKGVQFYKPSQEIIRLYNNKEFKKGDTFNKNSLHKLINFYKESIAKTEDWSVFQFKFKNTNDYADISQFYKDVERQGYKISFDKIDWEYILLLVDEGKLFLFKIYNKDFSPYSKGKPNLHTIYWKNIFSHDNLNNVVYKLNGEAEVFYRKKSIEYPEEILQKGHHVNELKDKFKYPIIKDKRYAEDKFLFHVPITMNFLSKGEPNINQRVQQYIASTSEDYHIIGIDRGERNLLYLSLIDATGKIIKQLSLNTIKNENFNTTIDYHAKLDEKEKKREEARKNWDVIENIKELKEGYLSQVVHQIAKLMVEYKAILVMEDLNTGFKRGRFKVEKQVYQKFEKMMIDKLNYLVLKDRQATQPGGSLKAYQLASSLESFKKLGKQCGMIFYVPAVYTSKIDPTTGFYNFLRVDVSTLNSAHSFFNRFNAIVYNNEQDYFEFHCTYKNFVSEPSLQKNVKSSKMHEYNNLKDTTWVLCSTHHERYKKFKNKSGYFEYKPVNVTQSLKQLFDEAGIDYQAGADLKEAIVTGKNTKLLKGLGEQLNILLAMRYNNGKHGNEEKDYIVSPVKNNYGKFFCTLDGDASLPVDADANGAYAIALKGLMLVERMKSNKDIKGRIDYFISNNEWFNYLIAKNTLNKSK


Molecular target: T1, UkCpf1 (in cells)
Assay: cell_activity; rice protoplast; PAM 5'-YYV

Binder	activity [% indel]
gRNA gTGW6-3 (UkCpf1 DR + spacer) ; TGW6-3 target (ssRNA ; dsDNA) RNA: AUUUCUACUAUUGUAGAUUUGACCUGCCAGGCUAUCCUGAU DNA 1: TTGACCTGCCAGGCTATCCTGAT DNA 2: ATCAGGATAGCCTGGCAGGTCAA	0.57
gRNA gTGW6-5 (UkCpf1 DR + spacer) ; TGW6-5 target (ssRNA ; dsDNA) RNA: AUUUCUACUAUUGUAGAUCGUGUAGCUGGGGCUGUACGUGU DNA 1: CGTGTAGCTGGGGCTGTACGTGT DNA 2: ACACGTACAGCCCCAGCTACACG	0.73
gRNA gTGW6-2 (UkCpf1 DR + spacer) ; TGW6-2 target (ssRNA ; dsDNA) RNA: AUUUCUACUAUUGUAGAUUUUCACCGACAGCAGCAUGAACU DNA 1: TTTCACCGACAGCAGCATGAACT DNA 2: AGTTCATGCTGCTGTCGGTGAAA	0.39
